# Measurements from the nanobody polyreactivity screen of Harvey et al. (2022).
# Assay: yeast display, Sf9 membrane polyspecificity reagent, FACS + sequencing; frameworks hold sequencing errors
# Method in brief: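 Genes from sorted yeast were amplified by colony PCR, read by MiSeq 2 × 250 sequencing and filtered on CDR length. These cells carried a synthetic nanobody library in Saccharomyces cerevisiae BJ5465 and were sorted by FACS into low and high (top ~1%) gates on anti-HA and streptavidin fluorescence. Polyreactivity is labelled according to the gate of origin.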
row,Sequence,polyreactivity (PSR sort gate)
1,QVQLVESGGGLVQAGGSHRLSCAASGSIFYSYAMGWYRQAPGKERELVAAITYDTGRTYYADSVKGRFTISRDNAKNTVYLQMNSLKPEDTAVYYCAVRPGYYWGYWPRFGYWGQGTQVTVSS,low polyreactivity
2,QVQLVESGGGLVQAGGSHRLSCAASGSIYLYYAMGRYRQAPGKERELVAGINRVGSTNYADSVKGRFTISRDNAKNTVYLQMNSLKPEDTAGYYCAKVVNGGYFYYQYPAQYYYWGQGTQVTVSS,low polyreactivity
3,QVQLVESGGGLVQAGGSHRLSCAASGSNIRFYAMGWYRQAPGKEREFVAAITSSGGNTYYADSVKGRFTISRDNAKNSVYLHMNSLKPEDTAVYYCAARYYGYGFDYWGQGTQVTVSS,high polyreactivity
4,QVQLVESGGGLVQAGGSHRLSCAASGSTFGQNAMGCYRQAPGKERELVAAITRRGVSTYYADSVKGRFTISRDNAKNTVYLQMNSLKPEDTAVYYCAKRYHPNSPYDYWGQGTQVTVSS,low polyreactivity
5,QVQLVESGGGLVQAGGSHRLSCAASGSTFNLNAMGWYRQAPGKERELVAAIDSGGRTNYADSVKGRFTISRDNAKNTVYLQMNSLKPEDTAVYYCADDVYAYPGSWYDYWGQGTQVTVSS,low polyreactivity
6,QVQLVESGGGLVQAGGSHRLSCAASGSTFPAYAMGLYRQAPGKERELVAAINTTGGNTYYADSVKGRFTISRDNAKNTVYFQMNSLKPEDTAVYYCAADYKARYSEKFDYWGQGTQVTVSS,low polyreactivity
7,QVQLVESGGGLVQAGGSHRLSCAASGSTFVYYAMGWYRQAPGKERELVADISSSTGSTYYADSVKGRFTISRDNAKNTVYLQMNSLKPEDTAVYYCAAGRLKFWYTYIIYDFYYWGQGTQVTVSS,low polyreactivity
8,QVQLVESGGGLVQAGGSHRLSCAASGSTFWRYAMGWYRQAPGKERELVAAITRRGSSTYYADSVKGRFTISRDNAKNTVYLQMNSLKPEDTAVYYCAREPYPYIRTYILGNYWGQGTQVTVSS,high polyreactivity
9,QVQLVESGGGLVQAGGSHRLSCAASGSTFYGYAMGWYRQAPGKESELVAAIRFSGDRTYYADSVKGRFTISRDNAKNTVYLQMNSLKPEDTAVYYCAAYGYPYQRKYGSWGQGTQVTVSS,high polyreactivity
10,QVQLVESGGGLVQAGGSHRLSCAPSGFTLADYTMAWYRPAPGKERELVAAITSGASTYYADSVKGRFTISRDNAKNTVYLQMNSLKPEDTAGYYCAARNDYYNTFSGYDYWGQGTQVTVSS,low polyreactivity
11,QVQLVESGGGLVQAGGSHRLSSAASGNTFGINAMGWYRQAPGKERELVASISFTGSSTYYADSVKGRFTISRDNAKNTVYLQMNSLKPEDTAVYYCNRDRITLYEYDYWGQGTQVTVSS,low polyreactivity
12,QVQLVESGGGLVQAGGSIPLTCAASGRTLWGYAMGWYSQAPGKEREMVAAITSGGSTYYADSVKGRFTISRDNAKYYVYLQMNSLKPEDTAVDYCNAVTSIQTSYPSNWGMMDYWGQGSQVTVSS,low polyreactivity
13,QVQLVESGGGLVQAGGSIRLICAASGSIFRLYAKGWYRQAPGKEREFVAAISSRGGSTYYADSVKGRFTISRDKAKNTVYLEMNSLKPEDSAVDYCAVYGYHEGGYWGQGTQVTVSS,high polyreactivity
14,QVQLVESGGGLVQAGGSIRLSCAASGFIFGLYDMGWYRQAPGKERELDAAISWSGGSTYYADSVKGRFTISRDNAKNTVYLQMNSLKPEDTAVYYCNKDLYADGEYNYDYWGQGTQVTVSS,low polyreactivity
15,QVQLVESGGGLVQAGGSIRLSCAASGFIFYYNPMGWSRQEPGIERELVADITSGRSTYYADSVKGRFTISRDNAKISVYLQLNSLKPEDTAVIYCAVDYDQFGSDEELPPGSDYWGQGTQVTVSS,low polyreactivity
16,QVQLVESGGGLVQAGGSIRLSCAASGFTFRSYTMGWYRQAPGKESELVAAITSRGTSTYYADSVKGRFTIPRDNAKNAVYLQMNSLKPEDTAVYYCNADGTRYAGDDYWGQGTQVTVSS,high polyreactivity
17,QVQLVESGGGLVQAGGSIRLSCAASGIIFDTYAMGWYRQAPGKERELVAVISASGGSTYYADSVKGRFTISRDNAKNTVYLQMNSLKPEDTAVYYCAARHSLYGYWGQGTQVTVSS,high polyreactivity
18,QVQLVESGGGLVQAGGSIRLSCAASGLTLIVNSMGWYRQAPGKERDLVASITIGGTTYADSVKGRFTISRDNAKNTVYLQMNSLKTEVTAVYYCAADYSSFSIDTGYDYWGQGTQVTVSS,low polyreactivity
19,QVQLVESGGGLVQAGGSIRLSCAASGRIFIYNVMGWYRQAPGKERELVATISTGGTTNYADSVKGRFTISRDNAKNTVYLQMNSLKPEETAVYYCIRGSGYWYLPAVKYDHWGQGTQVTVSS,low polyreactivity
20,QVQLVESGGGLVQAGGSIRLSCAASGRTFACNSMGCYRQAPGKERELVARIRSSGSTYYADSVKGRFTISRDNAKNTVYLQMNSLKPEDTAVYYCAADIRFWYGYYYWGQGTQVTVSS,high polyreactivity
21,QVQLVESGGGLVQAGGSIRLSCAASGRTFSKYTMGWYRQAPGKERELVAVISRSGTRTYYADSVKGRFTISRDNAKNTVYLQMNSLKAEDTAVYYCAAKDERRSFGMGYWGQGTHVTVSS,high polyreactivity
22,QVQLVESGGGLVQAGGSIRLSCAASGSIFGGYDMGWYRQAPGKERELVSAIDADAGSTYYADSVKGRFTISRDNAKNTVYLQMYSLKPEDTSDDYCGAESYPYFITLYVFTLYGYWGQGTQVTVAS,low polyreactivity

row,Sequence,polyreactivity (PSR sort gate)
1,QVQLVESGGGLVQAGGSIRLSCAASGSIFVSNAMGWYRQAPGKERELVAAISGGGSTYYADSVKGRFTISRDNAKNTVYLQMNSLKPEDTAVYYCAKKGGHRTYGYDSWGQGTQVTVSS,low polyreactivity
2,QVQLVESGGGLVQAGGSIRLSCAASGSTYFVYTMGWYRQATGQERELVAAISGSGRSTSYADSVKGRFTISRDNAKNTVYLQMNSLKPEDNAVYYCAARSHVYLRGSTFEFNYWGQGTQVTVSS,high polyreactivity
3,QVQLVESGGGLVQAGGSIRLTCAASGSIFKLYAMGWYRQATGKERELVAAISWRGGSTYYADSVKGRFTISRDIAKNTVYLQMNSLKPEDTAVYYCAAEYRQYDYWGQGTQVTVSS,high polyreactivity
4,QVQLVESGGGLVQAGGSIRLTCAASGSTFWEYVMGWYRQAPGKERELVAAINSGGRTYYADSVKGRFTISRDNAKNTVYLQMNSLKPEDTAVYYCAADTVYRTHHYAQHYYYWGQGTQVTVSS,high polyreactivity
5,QVQLVESGGGLVQAGGSLGLSCAASGFTFGHYAMGWYRPAPGKERELVAAISIDGGRTYYADSVKGRFTISRDNAKKTVYLQMNSLKPEDTAVYYCAVPGWVYYTSDYDYWGQGTQVTVSS,high polyreactivity
6,QVQLVESGGGLVQAGGSLGLSCAASGFTFYFYAMGWYRQAPGKERELVAANSRGTSTYYADSVKGRFTISRDNAKKTVYLQMNRLKPEDTAVYYCAARGLWPYDDWGQGTQVTVSS,low polyreactivity
7,QVQLVESGGGLVQAGGSLGLSCAASGRIFWTYAMGWYRQAPGKERELVASITWSGGSTYYADSVKGRFTISRDNANNTDYLQMNSLKPEDTSVYYCNTDVLAPYDSGYWGQGTQVTVSS,low polyreactivity
8,QVQLVESGGGLVQAGGSLGLSCAASGRSFRYYAMGWYIQAPGKERELVAAINWSGGSTYYADSVKGRFTISRDNAKNTVYLHMNRLKPEDTAVYYCNTRWYVGDDWGQGTQVTVSS,high polyreactivity
9,QVQLVESGGGLVQAGGSLGLSCAASGRTFDDYSMGWYRQAPGKEMEFVAGITDNGGGTNYADSVKGRFTISRDNAMNTVYLQMNSLKPEDTAVYYCNAASDDFFPGRSTYGRDYWGQGTQVTVSS,low polyreactivity
10,QVQLVESGGGLVQAGGSLGLSCAASGRTFSFYGMGWYRQAPGKERELVAAINSDSRTNYADSVKGRFTISRDNAKNTVYLQMNSLKPEDTAVYYCNAYWYTSTGQYSYEYWGQGTQVTVSS,low polyreactivity
11,QVQLVESGGGLVQAGGSLGLSCAASGRTFTPYAMGWYRQAPGIERELVAAIDTSGGSTYADSVKGRFTMSRDNAKNTVYLQMNSLKQEDTAVYYCNVDSAWYPYETEDDWGQGTQVTVSS,low polyreactivity
12,QVQLVESGGGLVQAGGSLGLSCAASGRTLYRYAMGWYRQARGKERELVAAIRSGGRTNYADSVKGRFTISRDNAKNTVYLQMNSLKPEDTAVYYCAAGTLRYPSTYVDWGQGTQVTVSS,high polyreactivity
13,QVQLVESGGGLVQAGGSLGLSCAASGSIFLRYTLGWYRQAPGKERELVAAISWSGGSTYYADSVKGRFTMSRDNAKNNVYLQMNSLKREDTAVYYCNAVYASWSYPGYDYWGQGTQVTVSS,high polyreactivity
14,QVQLVESGGGLVQAGGSLGLSCAPSGYTFVPYVMGWYRQAPGKERELVAAISRGGSTYYADSVKGRFTISRDHAKNTVYLQMNSLKPEDTAVYYCNAGWFKYYPNLQAFKYWGQGTQVTVSS,high polyreactivity
15,QVQLVESGGGLVQAGGSLGLSSAASGIIFLTYAMGWYSQAPGKDRELVAAINSTGSTNYADSVKGRFTISRDNAKNTVYLQMNSLTPEDTAVYYCAAEGLPYVRVFDFVSRYDYWGQGTQVNVSS,low polyreactivity
16,QVQLVESGGGLVQAGGSLHLSCAASGRIFRVNAMGWYRQAPGKERELVAAISYRGGRTYYADSVKGRFTFSRDNAKNTVYLQMNSLKPEDTAVYYCAAKVWARVDGRQFRMEYWGQGTQVTVSS,high polyreactivity
17,QVQLVESGGGLVQAGGSLLISCAASGSTFLLNAMGWYRQAPGKERELVAAITGSGTTTYYADSVKGRFTISRDNAKNTVFLHMNSLKPEDTAVYYCAAYAYYHTGDDYWGQGTQVTVSS,high polyreactivity
18,QVQLVESGGGLVQAGGSLLLICADSGITFYGNAMGWYRQAPGKERELVAAISSSGGTTYYADSVKGRFTISRDNAKNTVYLQMNSLKPEDTAVYYCNAVDGIHPYASPSFQQYDYWGQGTQVTVSS,low polyreactivity
19,QVQLVESGGGLVQAGGSLLLNCAASGITFAGNAMGWYRQAPGKERELLAAISGSGGSTSYADSVKGRFTISRDDAKNTVYLQMNSLKPEDTAVYYGSAASRLYHWHALFGSWGQGTQVTVSS,low polyreactivity
20,QVQLVESGGGLVQAGGSLLLSCAASGFSFEKNAMGWYIQEPGKERELVAAISRGGSTYADSVKGRFTISRDNAKNTVYLQMYSRKPVDTAVYYCAADTVYIFSSAINGEFGYWGQGTQVTVSS,low polyreactivity
21,QVQLVESGGGLVQAGGSLLLSCAASGFTFKYYAMGWYRQEPGKERELVAAINRSVGSTYYADSVKGRFTISRDNAKNTVYLQMNSLKPEDTAVYYCNARVRVPVTLHDYWGQGTQVTVSS,high polyreactivity
